This data set can be described thus: soluble on expression in E. coli; label from the status in PepcDB or PDB records.
For “MKIAIGSDHAGFPLKEKIKEFLKGEGHKVIDVGTHAQESTHYPIYAKEVVRAIRSGKAERGILICGTGIGMSITANKFRGIRAALCTNEYMARMSRLHNDANVLCLGERVLGVELALSIVKVWLETPFEGGRHLKRLEIISEIEDEICGENIPR”, the “soluble on expression in E. coli” value is listed as “soluble”.

With “MKIAILGAGCYRTHAAAGITNFMRACEVAKEVGKPEIALTHSSITYGAELLHLVPDVKEVIVSDPCFAEEPGLVVIDEFDPKEVMEAHLSGNPESIMPKIREVVKAKAKELPKPPKACIHLVHPEDVGLKVTSDDREAVEGADIVITWLPKGNKQPDIIKKFADAIPEGAIVTHAATIPTTKFAKIFKDLGREDLNITSYHPGCVPEMKGQVYIAEGYASEEAVNKLYEIGKIARGKAFKMPANLIGPVCDMCSAVTATVYAGLLAYRDAVTKILGAPADFAQMMADEALTQIHNLMKEKGIANMEEALDPAALLGTADSMCFGPLAEILPTALKVLEKHKVVEEEGKTKCEIMSQKE”, the “soluble on expression in E. coli” value is recorded as “soluble”.

For “MKIAIVGAGIGGLTAAALLCEQGHEVKVFEKNSTITEVGAGIGIGGNVIDKLGKHDLAKGIKNIGQVINVMEILDDKDNVLSKAKLKKNTVNLTMTRQSLIDVIKSYVSESAIYTNHHVTHVDNNALKVVMHFEAQEAEAFDLCIGADGLHSNIRHTVAPNSKTQYQGYTVFRGLVEDIDIKSDNVAKEYWSAKGRVGVVPLLNNQAYWFISINAKENDATMQSYGKPHLQARFNHFPNEVRKVLDKQSETDILLHDIYDLQPLKTFVYQRVILLGDAAHATTPNMGQGAGQAMEDAIVLANCLQAYPFEAALQRYDKIRVDHTKKVIKRSRKIGKLAQRSNKIVISLRNSIAKIMPNRLVAAQTKFIYKSKNKLEHHHHHH”, the “soluble on expression in E. coli” value is “soluble”. As for “MKIEHLQHPTTHQLDQLMTIWLSGNLTAHDFVSADYWRQQAPLVREALQSAELIVGLTDGPEAYILGFIGLQNDYIAGIFICNDAQHQGLGTALLATAQADYHQLQLNVYVANRPAIAFYHYHGFRVIDQASDQATQQSEYTMQWQR”, the “soluble on expression in E. coli” value is recorded as “not soluble”. For “MKIGFFTDTYFPQVSGVATSIKTLKDELEKHGHEVYIFTTTDPNATDFEEDVIRMPSVPFVSFKDRRVVVRGMWYAYLIAKELELDLIHTHTEFGAGILGKMVGKKMKIPVIHTYHTMYEDYLHYIAKGKVVRPSHVKFFSRVFTNHTTGVVCPSERVIEKLRDYGVTAPMRIIPTGIEIDKFLRPDITEEMIAGMRQQLGIEEQQIMLLSLSRISYEKNIQAIIQGLPQVIEKLPQTRLVIVGNGPYLEDLKELAEELEVSEYVQFTGEVPNEEVAIYYKAADYFVSASTSETQGLTYTEAMAAGVQCVAEGNAYLNNLFDHESLGKTFKTDSDFATTLIDYIQANIKMDQTILDEKLFEISSTNFGNKMIEFYQDTLIYFDQLQMEKENADSIKKIKVKFTSLRKLEHHHHHH”, the “soluble on expression in E. coli” value is recorded as “soluble”. The same measure for “MKIIVQKFGGTSVKDDKGRKLALGHIKEAISEGYKVVVVVSAMGRKGDPYATDSLLGLLYGDQSAISPREQDLLLSCGETISSVVFTSMLLDNGVKAAALTGAQAGFLTNDQHTNAKIIEMKPERLFSVLANHDAVVVAGFQGATEKGDTTTIGRGGSDTSAAALGAAVDAEYIDIFTDVEGVMTADPRVVENAKPLPVVTYTEICNLAYQGAKVISPRAVEIAMQAKVPIRVRSTYSNDKGTLVTSHHSSKVGSDVFERLITGIAHVKDVTQFKVPAKIGQYNVQTEVFKAMANAGISVDFFNITPSEIVYTVAGNKTETAQRILMDMGYDPMVTRNCAKVSAVGAGIMGVPGVTSKIVSALSEKEIPILQSADSHTTIWVLVHEADMVPAVNALHEEFELSK”: “soluble”; for “MKIKVISRNPNTYQRETTDKRNKIVRNFNTPADPFRSQVEYTRALNATKLERVFAKPFVASLDGHVDGVQVLAKHPNRPSTVFSGARDGQVKIWNLASRECQATLDAHRGLVNDISIDNNNGENFVTVGQDNQLKYWKIEGQQKTPAHSIAMDGIVYGVSHLSFSSDFVTCGEDISVWKPYRETPLRSYNLGTDTIHTCRANPVEENVIVGARSDRSIYVLDTRQDVPLKKVTMKMRPNKISWNPMEAYNFTVASEDYSLYTFDMRYMEHPVQSHQGFTSAVLDVDYSPTGQEFVAAGYDRSIRLFKARDMTSRDVYYTKRMASVLSVLWSADSKFVLSGSNEMNIRVWKANAAEKLGPLTKREKQAFAYNEKLRDTYKNHPEVRRIAKHRNVPRHIFTAAKEHKLIRDARGRRDFRRAKAAGLDEEESYLPQTQKIMVGDAEM”: “not soluble”.

Values taken from the DeepSol protein solubility set.
